Laboratory results reported in patent US7189519B2, “Bead-based detection of ligand-GPCR-G protein complexes” (STC.UNM, priority 1998, dated 2007).

B1: RGS8: regulator of G protein signaling protein (protein, UniProt P57771 1-180, looked up)
Regulator of G-protein …: MAALLMPRRNKGMRTRLGCLSHKSDSCSDFTAILPDKPNRALKRLSTEEATRWADSFDVLLSHKYGVAAFRAFLKTEFSEENLEFWLACEEFKKTRSTAKLVSKAHRIFEEFVDVQAPREVNIDFQTREATRKNLQEPSLTCFDQAQGKVHSLMEKDSYPRFLRSKMYLDLLSQSQRRLS
B2: RGS4: regulator of G protein signaling protein (protein, UniProt P49798 1-205, looked up)
Regulator of G-protein …: MCKGLAGLPASCLRSAKDMKHRLGFLLQKSDSCEHNSSHNKKDKVVICQRVSQEEVKKWAESLENLISHECGLAAFKAFLKSEYSEENIDFWISCEEYKKIKSPSKLSPKAKKIYNEFISVQATKEVNLDSCTREETSRNMLEPTITCFDEAQKKIFNLMEKDSYRRFLKSRFYLDLVNPSSCGAEKQKGAKSSADCASLVPQCA
B3: RGS7: regulator of G protein signaling protein (protein, UniProt P49802 1-495, looked up)
Regulator of G-protein …: MAQGNNYGQTSNGVADESPNMLVYRKMEDVIARMQDEKNGIPIRTVKSFLSKIPSVFSGSDIVQWLIKNLTIEDPVEALHLGTLMAAHGYFFPISDHVLTLKDDGTFYRFQTPYFWPSNCWEPENTDYAVYLCKRTMQNKARLELADYEAESLARLQRAFARKWEFIFMQAEAQAKVDKKRDKIERKILDSQERAFWDVHRPVPGCVNTTEVDIKKSSRMRNPHKTRKSVYGLQNDIRSHSPTHTPTPETKPPTEDELQQQIKYWQIQLDRHRLKMSKVADSLLSYTEQYLEYDPFLLPPDPSNPWLSDDTTFWELEASKEPSQQRVKRWGFGMDEALKDPVGREQFLKFLESEFSSENLRFWLAVEDLKKRPIKEVPSRVQEIWQEFLAPGAPSAINLDSKSYDKTTQNVKEPGRYTFEDAQEHIYKLMKSDSYPRFIRSSAYQELLQAKKKSGNSMDRRTSFEKFAQNVGRNIPIFPCHKNCTPTLRASTNLL
B4: RGS2: regulator of G protein signaling protein (protein, UniProt P41220 1-211, looked up)
Regulator of G-protein …: MQSAMFLAVQHDCRPMDKSAGSGHKSEEKREKMKRTLLKDWKTRLSYFLQNSSTPGKPKTGKKSKQQAFIKPSPEEAQLWSEAFDELLASKYGLAAFRAFLKSEFCEENIEFWLACEDFKKTKSPQKLSSKARKIYTDFIEKEAPKEINIDFQTKTLIAQNIQEATSGCFTTAQKRVYSLMENNSYPRFLESEFYQDLCKKPQITTEPHAT

Each molecule was assayed against T1, FPR-αi2 (R-α) fusion protein (UniProt P04897+P21462) (assay: RGS activity assay on beads (FPR-αi2, fluorescent ligand, GTP, Gβγ beads)).
T1 construct: expressed in transfected cells; U937 stated only for FPR
Type: biochemical
Method: FPR-αi2 (R-α) was used in the standard assembly assay with fluorescent ligand (see FIG. 3, complex C), and with the amounts of GTP and RGS shown in FIG. 7, using beads coated with Gβγ. Bead fluorescence was measured as previously described.
Standard LRG Assembly Assay. The standard 10 μl assay consisted of 2 μl of water or 10^−4M GTPγS, 6 μl of soluble receptor preparation with or without ligand, and 2 μl of beads prepared as above, with 0.7 pmol G protein used per assay, and an unknown fraction left on the beads in the proper orientation. For FPR and R-αi2 assemblies, L^F (fMLFK-FITC) was added in excess of receptor to ensure that essentially all the receptor was bound. For FPR-GFP assembly, 10^−6 M L (fMLFFGGK) was added to the receptor preparation to ensure that essentially all the receptor was bound. Each mixture was mixed by pipetting to ensure a uniform starting suspension of the beads in 96 V-well plates (Costar), and then mixed at low speed on a vortex mixer at 7° for two hours. The 10 μl assays were individually brought to 200 μl with 0.1% dodecyl maltoside in buffer A in 12×75 mm tubes for flow cytometric measurement of fluorescence of the beads. LRG assembly was defined as the difference between fluorescence without GTPγS and that with GTPγS. All determinations were done in duplicate.
RGS Activity Affects LR-αG Assemblies on Beads. As a second mechanistic problem, the role of GTP and RGS activity in regulating the assembly of βγ subunits with the receptor-Giα fusion protein was examined (FIG. 7; see also FIGS. 3, complex C and FIG. 4B). […] The data were consistent with the idea that RGS, by enhancing the cleavage of GTP, affected the GTP dose-response for the formation of the bead-based complex. The shift in the dose-response was consistent with the consumption of 10 μM or more GTP in 10 μl over 2 hours in the presence of R-α, RGS, and L. Calculating that 24 nM R-α (the total added) consumed 10 μM GTP equally in the first half hour, leaving 60 minutes for assembly on the bead, the turnover number was ˜14 min^−1 for the receptor-Giα fusion protein at 7° C.; if rates double for every 10° C. increase, this would imply about 110 min^−1 at 37° C. Calculating consumption over the entire time yields ˜5 and 40 min^−1, respectively.
The nucleotide sensitivity of the assembly of R-αi2 with βγ allowed the activity and specificity of RGS to be examined. […] This assembly format therefore has the potential for discriminating RGS antagonists. Elsewhere it is described how GTP increases access of soluble assemblies of R-αi2 to anti-αi2 antibody, consistent with the idea of Ay binding and release (Shi M, et al., submitted).

T1 sequence (P21462+P04897 fused): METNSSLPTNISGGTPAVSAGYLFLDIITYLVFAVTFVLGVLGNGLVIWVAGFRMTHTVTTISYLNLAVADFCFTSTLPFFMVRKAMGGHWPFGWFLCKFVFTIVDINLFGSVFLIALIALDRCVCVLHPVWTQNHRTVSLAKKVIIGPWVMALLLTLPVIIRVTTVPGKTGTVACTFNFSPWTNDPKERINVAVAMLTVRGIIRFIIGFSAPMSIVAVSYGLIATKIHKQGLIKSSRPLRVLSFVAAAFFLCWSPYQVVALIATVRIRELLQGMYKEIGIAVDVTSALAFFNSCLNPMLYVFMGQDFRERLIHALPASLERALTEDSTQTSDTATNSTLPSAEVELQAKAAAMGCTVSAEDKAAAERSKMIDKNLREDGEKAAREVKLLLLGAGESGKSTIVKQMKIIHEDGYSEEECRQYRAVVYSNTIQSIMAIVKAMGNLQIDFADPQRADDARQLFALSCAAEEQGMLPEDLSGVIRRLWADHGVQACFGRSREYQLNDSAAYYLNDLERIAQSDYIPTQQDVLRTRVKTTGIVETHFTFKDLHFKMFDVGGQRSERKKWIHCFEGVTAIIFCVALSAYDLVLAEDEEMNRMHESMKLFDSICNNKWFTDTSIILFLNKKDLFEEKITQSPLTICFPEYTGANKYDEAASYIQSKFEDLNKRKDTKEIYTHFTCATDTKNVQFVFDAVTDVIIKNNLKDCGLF

Molecule | GTP consumption in the presence of LR-α
B1 | appeared to consume GTP
B2 | appeared to consume GTP
B3 | appeared to consume GTP
B4 | did not
